Consider ten variants from IntAct's records for PubMed 31515488.

To fix the notation:
B1: Synaptotagmin-like protein 5 (Homo sapiens), Q8TDW5 (parent)
chain: MSKNSEFINLSFLLDHEKEMILGVLKRDEYLKKVEDKRIRKLKNELLEAKRRSGKTQQEASRVCVHCHRNLGLIFDRGDPCQACSLRVCRECRVAGPNGSWKCTVCDKIAQLRIITGEWFFEEKAKRFKQVNVLGTDVVRQSILRRSPGAEEVQSQEQTRQDAEKSDTSPVAGKKASHDGPKRKGFLLSKFRSATRGEIITPKTDTGRSYSLDLDGQHFRSLKSPPGSDRGSTGSSDLNDQEPGPRTPKSSRSNGVTPGTQSSPAPSTRTVTSVISREYGFENSMDLAAIEGTSQELTKSHRRNTSGTPSIAVSGTSLSSDQSRSELDLSESFTEDSEDTVSIRSKSVPGALDKDSLEETEESIDALVSSQLSTNTHRLASGLSTTSLNSMMSVYSETGDYGNVKVSGEILLHISYCYKTGGLYIFVKNCRNLAIGDEKKQRTDAYVKSYLLPDKSRNNKRKTKIRTGTNPEFNETLKYTISHTQLETRTLQLSVWHYDRFGRNSFLGEVEIPFDSWNFENPTDEWFVLQPKVEFAPDIGLQYKGELTVVLRYIPPEENLMLPPEQLQGNKTFKKGKKKESPVISGGILEVFIKEAKNLTAVKSGGTSDSFVKGYLLPDDSKATKHKTLVIKKSVNPQWNHTFMFSGIHPQDIKNVCLELTIWDKEAFSSNIFLGGVRLNSGSGVSHGKNVDWMDSQGEEQRLWQKMANNPGTPFEGVLMLRSSMGKCRL
B2: Gem-associated protein 7 (Homo sapiens), Q9H840 (parent)
chain: MQTPVNIPVPVLRLPRGPDGFSRGFAPDGRRAPLRPEVPEIQECPIAQESLESQEQRARAALRERYLRSLLAMVGHQVSFTLHEGVRVAAHFGATDLDVANFYVSQLQTPIGVQAEALLRCSDIISYTFKP
B3: Ropporin-1A (Homo sapiens), Q9HAT0 (parent)
chain: MAQTDKPTCIPPELPKMLKEFAKAAIRVQPQDLIQWAADYFEALSRGETPPVRERSERVALCNRAELTPELLKILHSQVAGRLIIRAEELAQMWKVVNLPTDLFNSVMNVGRFTEEIEWLKFLALACSALGVTITKTLKIVCEVLSCDHNGGSPRIPFSTFQFLYTYIAKVDGEISASHVSRMLNYMEQEVIGPDGIITVNDFTQNPRVQLE
partner: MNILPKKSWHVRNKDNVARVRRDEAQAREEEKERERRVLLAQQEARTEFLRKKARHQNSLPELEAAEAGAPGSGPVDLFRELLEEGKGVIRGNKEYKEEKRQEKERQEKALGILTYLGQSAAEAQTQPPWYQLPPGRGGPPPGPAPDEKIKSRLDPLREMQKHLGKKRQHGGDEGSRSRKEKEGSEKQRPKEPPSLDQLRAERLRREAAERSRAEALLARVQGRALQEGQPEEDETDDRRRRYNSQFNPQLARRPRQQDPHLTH
B4: Serpin I2 (Homo sapiens), O75830 (parent)
chain: MDTIFLWSLLLLFFGSQASRCSAQKNTEFAVDLYQEVSLSHKDNIIFSPLGITLVLEMVQLGAKGKAQQQIRQTLKQQETSAGEEFFVLKSFFSAISEKKQEFTFNLANALYLQEGFTVKEQYLHGNKEFFQSAIKLVDFQDAKACAEMISTWVERKTDGKIKDMFSGEEFGPLTRLVLVNAIYFKGDWKQKFRKEDTQLINFTKKNGSTVKIPMMKALLRTKYGYFSESSLNYQVLELSYKGDEFSLIIILPAEGMDIEEVEKLITAQQILKWLSEMQEEEVEISLPRFKVEQKVDFKDVLYSLNITEIFSGGCDLSGITDSSEVYVSQVTQKVFFEINEDGSEAATSTGIHIPVIMSLAQSQFIANHPFLFIMKHNPTESILFMGRVTNPDTQEIKGRDLDSL
B5: Protein LDOC1 (Homo sapiens), O95751 (parent)
chain: MVDELVLLLHALLMRHRALSIENSQLMEQLRLLVCERASLLRQVRPPSCPVPFPETFNGESSRLPEFIVQTASYMLVNENRFCNDAMKVAFLISLLTGEAEEWVVPYIEMDSPILGDYRAFLDEMKQCFGWDDDEDDDDEEEEDDY
partner: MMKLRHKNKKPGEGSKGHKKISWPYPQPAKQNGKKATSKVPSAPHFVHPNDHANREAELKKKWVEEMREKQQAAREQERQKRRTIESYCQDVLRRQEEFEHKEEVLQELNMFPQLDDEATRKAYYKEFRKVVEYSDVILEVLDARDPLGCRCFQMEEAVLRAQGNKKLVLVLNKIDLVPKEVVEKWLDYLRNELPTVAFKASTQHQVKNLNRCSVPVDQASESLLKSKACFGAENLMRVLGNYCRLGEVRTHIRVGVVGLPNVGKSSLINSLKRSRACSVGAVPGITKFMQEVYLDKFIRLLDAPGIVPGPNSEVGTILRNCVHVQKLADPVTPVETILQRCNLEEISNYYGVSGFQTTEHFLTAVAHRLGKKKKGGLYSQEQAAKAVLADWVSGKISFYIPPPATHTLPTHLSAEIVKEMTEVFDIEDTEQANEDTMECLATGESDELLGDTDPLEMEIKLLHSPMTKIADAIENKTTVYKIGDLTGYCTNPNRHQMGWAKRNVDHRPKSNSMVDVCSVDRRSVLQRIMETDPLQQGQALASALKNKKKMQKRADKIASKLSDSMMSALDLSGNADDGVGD
B6: Breast cancer anti-estrogen resistance protein 3 (Homo sapiens), O75815-1 (parent)
chain: MAAGKFASLPRNMPVNHQFPLASSMDLLSSRSPLAEHRPDAYQDVSIHGTLPRKKKGPPPIRSCDDFSHMGTLPHSKSPRQNSPVTQDGIQESPWQDRHGETFTFRDPHLLDPTVEYVKFSKERHIMDRTPEKLKKELEEELLLSSEDLRSHAWYHGRIPRQVSENLVQRDGDFLVRDSLSSPGNFVLTCQWKNLAQHFKINRTVLRLSEAYSRVQYQFEMESFDSIPGLVRCYVGNRRPISQQSGAIIFQPINRTVPLRCLEEHYGTSPGQAREGSLTKGRPDVAKRLSLTMGGVQAREQNLPRGNLLRNKEKSGSQPACLDHMQDRRALSLKAHQSESYLPIGCKLPPQSSGVDTSPCPNSPVFRTGSEPALSPAVVRRVSSDARAGEALRGSDSQLCPKPPPKPCKVPFLKVPSSPSAWLNSEANYCELNPAFATGCGRGAKLPSCAQGSHTELLTAKQNEAPGPRNSGVNYLILDDDDRERPWEPAAAQMEKGQWDKGEFVTPLLETVSSFRPNEFESKFLPPENKPLETAMLKRAKELFTNNDPKVIAQHVLSMDCRVARILGVSEEMRRNMGVSSGLELITLPHGHQLRLDIIERHNTMAIGIAVDILGCTGTLEDRAATLSKIIQVAVELKDSMGDLYSFSALMKALEMPQITRLEKTWTALRHQYTQTAILYEKQLKPFSKLLHEGRESTCVPPNNVSVPLLMPLVTLMERQAVTFEGTDMWEKNDQSCEIMLNHLATARFMAEAADSYRMNAERILAGFQPDEEMNEICKTEFQMRLLWGSKGAQVNQTERYEKFNQILTALSRKLEPPPVKQAEL
partner: B6 chain
B7: Zinc finger protein Aiolos (Homo sapiens), Q9UKT9 (parent)
chain: MEDIQTNAELKSTQEQSVPAESAAVLNDYSLTKSHEMENVDSGEGPANEDEDIGDDSMKVKDEYSERDENVLKSEPMGNAEEPEIPYSYSREYNEYENIKLERHVVSFDSSRPTSGKMNCDVCGLSCISFNVLMVHKRSHTGERPFQCNQCGASFTQKGNLLRHIKLHTGEKPFKCHLCNYACQRRDALTGHLRTHSVEKPYKCEFCGRSYKQRSSLEEHKERCRTFLQSTDPGDTASAEARHIKAEMGSERALVLDRLASNVAKRKSSMPQKFIGEKRHCFDVNYNSSYMYEKESELIQTRMMDQAINNAISYLGAEALRPLVQTPPAPTSEMVPVISSMYPIALTRAEMSNGAPQELEKKSIHLPEKSVPSERGLSPNNSGHDSTDTDSNHEERQNHIYQQNHMVLSRARNGMPLLKEVPRSYELLKPPPICPRDSVKVINKEGEVMDVYRCDHCRVLFLDYVMFTIHMGCHGFRDPFECNMCGYRSHDRYEFSSHIARGEHRALLK
partner: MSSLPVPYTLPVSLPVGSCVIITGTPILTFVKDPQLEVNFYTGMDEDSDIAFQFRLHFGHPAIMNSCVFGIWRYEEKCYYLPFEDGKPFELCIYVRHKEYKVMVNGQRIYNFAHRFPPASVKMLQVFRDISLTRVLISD
B8: Protein RD3 (Homo sapiens), Q7Z3Z2 (parent)
chain: MSLISWLRWNEAPSRLSTRSPAEMVLETLMMELTGQMREAERQQRERSNAVRKVCTGVDYSWLASTPRSTYDLSPIERLQLEDVCVKIHPSYCGPAILRFRQLLAEQEPEVQEVSQLFRSVLQEVLERMKQEEEAHKLTRQWSLRPRGSLATFKTRARISPFASDIRTISEDVERDTPPPLRSWSMPEFRAPKAD
B9: Cytochrome P450 2S1 (Homo sapiens), Q96SQ9 (parent)
chain: MEATGTWALLLALALLLLLTLALSGTRARGHLPPGPTPLPLLGNLLQLRPGALYSGLMRLSKKYGPVFTIYLGPWRPVVVLVGQEAVREALGGQAEEFSGRGTVAMLEGTFDGHGVFFSNGERWRQLRKFTMLALRDLGMGKREGEELIQAEARCLVETFQGTEGRPFDPSLLLAQATSNVVCSLLFGLRFSYEDKEFQAVVRAAGGTLLGVSSQGGQTYEMFSWFLRPLPGPHKQLLHHVSTLAAFTVRQVQQHQGNLDASGPARDLVDAFLLKMAQEEQNPGTEFTNKNMLMTVIYLLFAGTMTVSTTVGYTLLLLMKYPHVQKWVREELNRELGAGQAPSLGDRTRLPYTDAVLHEAQRLLALVPMGIPRTLMRTTRFRGYTLPQGTEVFPLLGSILHDPNIFKHPEEFNPDRFLDADGRFRKHEAFLPFSLGKRVCLGEGLAKAELFLFFTTILQAFSLESPCPPDTLSLKPTVSGLFNIPPAFQLQVRPTDLHSTTQTR
partner: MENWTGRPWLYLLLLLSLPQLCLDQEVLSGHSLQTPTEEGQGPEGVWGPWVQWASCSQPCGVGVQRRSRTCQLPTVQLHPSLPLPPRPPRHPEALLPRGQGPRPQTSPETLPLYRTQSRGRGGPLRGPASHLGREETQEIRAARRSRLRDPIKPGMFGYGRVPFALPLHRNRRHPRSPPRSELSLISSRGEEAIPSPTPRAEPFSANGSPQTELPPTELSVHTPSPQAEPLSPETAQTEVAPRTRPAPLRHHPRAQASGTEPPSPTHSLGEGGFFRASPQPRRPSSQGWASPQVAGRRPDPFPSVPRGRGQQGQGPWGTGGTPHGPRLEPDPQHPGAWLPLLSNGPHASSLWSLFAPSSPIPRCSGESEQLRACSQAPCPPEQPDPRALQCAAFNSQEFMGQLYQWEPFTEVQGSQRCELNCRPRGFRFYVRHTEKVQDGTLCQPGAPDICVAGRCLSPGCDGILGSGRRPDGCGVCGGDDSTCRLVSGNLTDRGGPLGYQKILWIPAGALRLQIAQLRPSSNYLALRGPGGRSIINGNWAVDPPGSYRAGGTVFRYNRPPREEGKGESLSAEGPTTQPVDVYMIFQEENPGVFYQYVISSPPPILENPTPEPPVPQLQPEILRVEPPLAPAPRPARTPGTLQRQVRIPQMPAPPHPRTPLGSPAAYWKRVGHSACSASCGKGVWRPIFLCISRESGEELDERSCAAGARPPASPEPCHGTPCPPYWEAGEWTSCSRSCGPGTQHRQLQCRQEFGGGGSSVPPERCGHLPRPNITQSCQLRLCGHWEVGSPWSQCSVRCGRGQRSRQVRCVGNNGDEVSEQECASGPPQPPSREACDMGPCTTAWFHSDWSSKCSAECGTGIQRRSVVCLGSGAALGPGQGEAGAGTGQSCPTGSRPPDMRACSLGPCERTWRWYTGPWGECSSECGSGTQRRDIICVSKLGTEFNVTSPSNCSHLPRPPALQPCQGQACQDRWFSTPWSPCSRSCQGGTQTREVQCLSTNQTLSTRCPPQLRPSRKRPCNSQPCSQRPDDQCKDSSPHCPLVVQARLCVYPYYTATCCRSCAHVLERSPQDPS

In one assay the parent is B1. The following applies: with cep70_human CEP70, Q8NHQ1.
Chain of cep70_human CEP70, Q8NHQ1 (Q8NHQ1 whole entry): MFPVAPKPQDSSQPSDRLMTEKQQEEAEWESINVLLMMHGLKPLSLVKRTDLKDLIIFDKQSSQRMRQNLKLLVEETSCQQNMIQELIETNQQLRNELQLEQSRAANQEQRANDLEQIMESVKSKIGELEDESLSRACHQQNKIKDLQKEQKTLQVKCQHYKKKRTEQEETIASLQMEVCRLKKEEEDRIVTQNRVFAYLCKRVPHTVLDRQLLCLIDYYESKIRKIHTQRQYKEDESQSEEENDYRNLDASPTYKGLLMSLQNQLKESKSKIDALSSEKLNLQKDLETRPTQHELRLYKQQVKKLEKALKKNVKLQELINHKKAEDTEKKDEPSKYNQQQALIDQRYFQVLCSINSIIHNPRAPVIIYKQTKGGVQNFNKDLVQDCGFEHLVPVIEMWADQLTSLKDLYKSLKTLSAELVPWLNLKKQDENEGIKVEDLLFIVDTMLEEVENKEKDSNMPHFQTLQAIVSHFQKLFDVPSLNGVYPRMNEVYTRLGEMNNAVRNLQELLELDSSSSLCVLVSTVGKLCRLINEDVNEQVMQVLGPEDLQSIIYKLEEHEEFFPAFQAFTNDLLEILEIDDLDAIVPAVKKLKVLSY
As to R160H, the “effect of a mutation on the interaction” value is “with no effect”.

The next assay covers variants of B2. Particulars: with gemi6_human GEMIN6, Q8WXD5.
Chain of gemi6_human GEMIN6, Q8WXD5 (Q8WXD5 whole entry): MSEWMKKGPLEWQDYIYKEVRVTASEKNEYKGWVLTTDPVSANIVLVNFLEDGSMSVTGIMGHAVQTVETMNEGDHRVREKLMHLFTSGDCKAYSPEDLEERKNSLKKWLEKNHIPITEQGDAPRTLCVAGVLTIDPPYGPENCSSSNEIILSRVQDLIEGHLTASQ
On to R68C, for which the “effect of a mutation on the interaction” value was “with no effect”.

A further assay covers variants of B3. Particulars: with leng1_human LENG1, Q96BZ8.
For C62W, the “effect of a mutation on the interaction” value is listed as “with no effect”.

In a further assay the parent is B4. Particulars: with ubql1_human UBQLN1, Q9UMX0.
Chain of ubql1_human UBQLN1, Q9UMX0 (Q9UMX0 whole entry): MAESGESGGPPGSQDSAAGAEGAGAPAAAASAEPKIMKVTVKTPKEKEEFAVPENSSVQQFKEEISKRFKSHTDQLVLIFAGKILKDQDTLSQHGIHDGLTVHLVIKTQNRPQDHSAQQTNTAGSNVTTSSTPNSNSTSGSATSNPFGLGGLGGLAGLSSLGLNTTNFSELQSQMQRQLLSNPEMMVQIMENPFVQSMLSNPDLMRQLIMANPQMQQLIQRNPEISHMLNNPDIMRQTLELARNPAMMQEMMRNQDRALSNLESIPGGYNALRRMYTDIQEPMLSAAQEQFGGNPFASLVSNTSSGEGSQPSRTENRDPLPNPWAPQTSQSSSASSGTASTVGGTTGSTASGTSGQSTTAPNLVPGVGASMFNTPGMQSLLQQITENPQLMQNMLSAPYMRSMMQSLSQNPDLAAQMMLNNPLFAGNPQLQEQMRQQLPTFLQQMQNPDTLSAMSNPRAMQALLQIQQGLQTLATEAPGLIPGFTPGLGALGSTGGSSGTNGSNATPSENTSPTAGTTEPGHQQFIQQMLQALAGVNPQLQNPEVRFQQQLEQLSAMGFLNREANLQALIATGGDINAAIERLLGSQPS
For E148G, the “effect of a mutation on the interaction” value was “with no effect”.

A further assay covers variants of B4. Particulars: with bag6_human BAG6, P46379.
Chain of bag6_human BAG6, P46379 (P46379 whole entry): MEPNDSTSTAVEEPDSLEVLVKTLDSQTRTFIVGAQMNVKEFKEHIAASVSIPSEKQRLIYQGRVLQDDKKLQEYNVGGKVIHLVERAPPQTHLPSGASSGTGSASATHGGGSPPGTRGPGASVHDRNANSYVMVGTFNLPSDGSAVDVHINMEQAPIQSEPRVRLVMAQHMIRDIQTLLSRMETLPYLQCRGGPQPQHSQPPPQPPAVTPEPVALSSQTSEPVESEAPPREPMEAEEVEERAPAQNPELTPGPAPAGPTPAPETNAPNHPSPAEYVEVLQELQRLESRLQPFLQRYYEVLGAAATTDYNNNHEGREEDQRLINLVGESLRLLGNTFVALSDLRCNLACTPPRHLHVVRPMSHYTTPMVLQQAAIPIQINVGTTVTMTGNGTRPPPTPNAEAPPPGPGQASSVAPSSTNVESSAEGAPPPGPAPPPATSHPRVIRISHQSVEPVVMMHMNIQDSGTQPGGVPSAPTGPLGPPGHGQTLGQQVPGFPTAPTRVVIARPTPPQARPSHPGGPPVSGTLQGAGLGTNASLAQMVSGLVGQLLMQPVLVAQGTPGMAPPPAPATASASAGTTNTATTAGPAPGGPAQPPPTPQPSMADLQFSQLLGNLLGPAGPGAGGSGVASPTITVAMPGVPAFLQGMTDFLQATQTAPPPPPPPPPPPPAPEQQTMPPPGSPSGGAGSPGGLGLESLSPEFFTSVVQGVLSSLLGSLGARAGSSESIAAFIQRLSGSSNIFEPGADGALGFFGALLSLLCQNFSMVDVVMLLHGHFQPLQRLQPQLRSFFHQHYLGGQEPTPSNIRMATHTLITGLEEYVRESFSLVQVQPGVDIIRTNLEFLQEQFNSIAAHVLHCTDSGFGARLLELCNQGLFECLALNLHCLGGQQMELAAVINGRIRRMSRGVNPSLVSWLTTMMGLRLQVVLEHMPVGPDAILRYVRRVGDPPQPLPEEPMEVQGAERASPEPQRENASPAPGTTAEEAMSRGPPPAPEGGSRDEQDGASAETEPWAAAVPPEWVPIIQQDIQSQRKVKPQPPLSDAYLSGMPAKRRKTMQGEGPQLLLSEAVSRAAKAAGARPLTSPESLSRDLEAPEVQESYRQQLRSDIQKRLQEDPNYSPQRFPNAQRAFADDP
Take E148G: the “effect of a mutation on the interaction” value is “with no effect”.

The next assay covers variants of B5. The following applies: with gnl3l_human GNL3L.
L12H: the “effect of a mutation on the interaction” value is “disrupting interaction strength”.

Variants of B6 are the subject of a further assay. The following applies: with bcar3_human BCAR3, O75815.
Regarding P404S, the “effect of a mutation on the interaction” value is listed as “with no effect”.

Variants of B7 are the subject of another assay. The following applies: with ppl13_human LGALS14, Q8TCE9.
N119D: the “effect of a mutation on the interaction” value is “with no effect”.

For the variant A24V, the “effect of a mutation on the interaction” value is given as “with no effect”.

A further assay covers variants of B8. The following applies: with ei2ba_human EIF2B1, Q14232.
Chain of ei2ba_human EIF2B1, Q14232 (Q14232 whole entry): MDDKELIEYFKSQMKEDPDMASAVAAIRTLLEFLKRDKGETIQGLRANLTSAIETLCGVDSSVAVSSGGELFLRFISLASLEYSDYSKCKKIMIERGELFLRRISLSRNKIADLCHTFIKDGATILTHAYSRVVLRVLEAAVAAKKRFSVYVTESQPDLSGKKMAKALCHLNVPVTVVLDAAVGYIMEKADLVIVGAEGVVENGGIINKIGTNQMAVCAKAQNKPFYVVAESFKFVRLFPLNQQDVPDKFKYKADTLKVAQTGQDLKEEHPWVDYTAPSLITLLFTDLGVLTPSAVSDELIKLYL
On to R167K, for which the “effect of a mutation on the interaction” value was “with no effect”.

Another assay covers variants of B9. Particulars: with atl4_human ADAMTSL4, Q6UY14.
As for R166H, the “effect of a mutation on the interaction” value is “disrupting interaction strength”.
